Biological target: actin of the F-actin structures in focal adhesions of Vero cells (monkey (endogenous in Vero)) (UniProt Q76N69)
Assay: FRAP (fluorescence recovery after photobleaching); GFP-L-plastin variants bleached in a 5 µm spot in focal adhesions of live Vero cells, 37°C; curves fitted with a two-binding-state model, reaction dominant regime; pseudo-association rates k*on = kon·Seq

wild type (WT) L-plastin fused to GFP, expressed in Vero cells (from UniProt P13796 1-627) (natural protein)
Feq (equilibrium normalized concentration of free molecules): 0.513
k1off (dissociation rate, first quick binding state): 0.616 s⁻¹
k2off (dissociation rate, second slow binding state): 0.03 s⁻¹
k*1on (pseudo-association rate, first quick binding state): 0.338 s⁻¹
k*2on (pseudo-association rate, second slow binding state): 0.01 s⁻¹

Ser5/Ala (S5/A) GFP-L-plastin, expressed in Vero cells (from UniProt P13796 1-627) (natural protein)
fold change of k*2on against WT- and S5/E-L-plastin: 2 fold lower
k1off (dissociation rate, first quick binding state): 0.073 s⁻¹
k*1on (pseudo-association rate, first quick binding state): 0.173 s⁻¹

Ser5/Glu (S5/E) GFP-L-plastin, expressed in Vero cells (from UniProt P13796 1-627) (natural protein)
k1off (dissociation rate, first quick binding state): 0.612 s⁻¹
k*1on (pseudo-association rate, first quick binding state): 0.42 s⁻¹

From PMC2821400
